The series in a line: label from the status in PepcDB records.
On to “MRIIAITEKVIKELFRDKRTLAMMFLAPILIMFLMNVMFSANSNTKVKIGTINVNTKVVSNLDNIKHIQVRSFKFNSSAKKALKSNKIDALISEDNKSYTVFYANTDSSKTTLTRQAFKTAVNTMNSKELISQVKILANKNPKLAQSLQTRSKYIKEKYNYGNKNTGFFAKMIPILMGFMVFFFVFLISGMALLKERTSGTLDRLLATPVKRSDIVFGYMLSYGILAIIQTIVIVLSTIWLLDIQVVGSIFSVIIVNFILALVALSLGILMSTLAKSEFQMMQFIPLIIMPQLFFSGIIPLENMASWAQTVGKILPLSYSGDALTKIIMYGQGLPNVSSNLLVLLLFLIILTIANIFGLKRYRKV”, for which the protein production entry is on record as “failed”.

As to “MKSFDGHNDLLARLWLSEHPDPVGMFLKGQLPGHLDFARCQQAQFAGGLFAIFVPPFDYVKNNHPYKLRKSAQAGFDTQDIHHIVFTQLDYIKQIASRSDRRIQICLSVEDIQFCLQQDIMAVVIHLEGAEVLDSEFGVLEQLHARGLRSIGPLWNLPNQFGHGLQASFPHSPDTGLGLTDQGKALIQLCSEKRIMIDVSHMNEKAFWDTAKISELPLIATHSNVHQLCPQPRNLTDAQLEAIQASQGCVGVNFDTAFLRPDGQRNAATSLDLILEHIEYLMHKLGEDQVAFGSDFDGGFISDHLKDVTGLIHLQQAFERRGYSQALQEKLCHQNWLSALQRVWHPAC”, the protein production entry is listed as “failed”.

In the case of “GYRALSFPDPLDSQPVQAIAFYPSTGSEHLSIIHGYRVEASEDAPIAMGRFPLLLLSHGNTGTPLALHDLATSLARQGFVVVAVVHPGDNDRDHSRLGSLSNLYGRPLQISEAISTALLDPVLAPYLNARQ”, the protein production entry is given as “not failed”.

For the sequence “MIVRGGGDLATGVIQKLWHVGFKILVLETECPLAIRRTVSVCDAIFQKEQRVEDLVAVRITSLKDCAKCWQQNKLPVFVDQTASAIQQLKPLIVIDAILAKKNLGTHRGMAPITIALGPGFSAPQDVDVVIETMRGHRLGRLYFEGTALPNTGIPGEIGGKSAERVVHAPASGQVTHLKNIGDLVLKGEALFLIDQVPVYSPLTGTLRGLISEKVTCYQGLKCADVDPRPVEKVDCLTISDKARALGGAVLEAIFMIGRRKNVLLEHHHHHH”, the protein production result is reported as “not failed”.

As for “MTQDEWIDIPQGWSQGRTIYGGLVAGLLMHKALSVMNDESKNLLSTSITFVGPVNEGRVRLTVEILRQGKSVTTIEARLWQDQAVQTILIASFGQPRSLEHHHHHH”, the protein production result is listed as “not failed”.

Take “MYIVNSNKSRGSSVERYIVSRLRDKGFAVIRAPASGSKRKDHVPDIIALKSGVIILIEVKSRKNGQKIYIEKEQAEGIREFAKRSGGELFLGVKLPKMLRFIKFDMLRQTEGGNYAIDLETVEKGMELEDLVRYVESKISRTLDSFL”: the protein production entry is “not failed”.

Regarding “MKFQPLGERVLVERLEEENKTSSGIIIPDNAKEKPLMGVVKAVSHKISEGCKCVKEGDVIAFGKYKGAEIVLDGTEYMVLELEDILGIVGSGSCCHTGNHDHKHAKEHEACCHDHKKH”, the protein production result is “failed”.

Consider “MIESAVGKAAYSTAAFLIKSLPVVVIAIYAVSYSIKKGYLERFALFLQPALRKFGVSEFAVISFATCFVSPTASYSMLSQAWREKKVDDREVIAISFLNSFPSVFSHLYAYFIPFVIPVLGFAGVVYTAVRFAVAAIKSLIGLLLSRSRKNSDTSAPELSPLSVSQNVVRIGAVMAATYFIVSLLSQLGVFDLMAESLKFLPFRAEAVTIAIVEFFNIRSAVVTAASFIDAGLEWKWAVIGLILGNVISFSTRSVKHSLPMHLSLFGGFGVKIVLLNSIVTLILDIFFVVLLLLV”, for which the protein production entry is “failed”.

Take “MARYRGAVERLERRFGVSLALKGERRLSGKSALDKRAYGPGQHGQRRAKTSDYGLQLKEKQKAKMMYGISEKQFRSIFVEANRLDGNTGENLIRLIERRLDNVVYRMGFATTRSSARQLVTHGHVLVDGKRLDIPSYFVRSGQKIEIKEKTKSNSQVVRAMELTAQTGIVPWIDVEKDKKYGIFTRYPEREEVVVPIEERLIVELYSK”: the protein production result is “failed”.

For the sequence “MVANLPALFSLGVFVGVILLIMSEKIHLTIAAFLGALILVFTHVITLKEGIDYISQSYATLALFFGVMVLVRSFEPTKIFEYLATQMVLLAKGSGKLLMLGVIAITTPICAVLPNATTVMLLAPLIPPLAQEIGVDFVPILILMVFVANSAGLLTLVGDPATFIVGDAINISFNDYLFKLSFMGVLAIVSIVVITPFLFRHIWRSRFTHLEDLPHPQINHPKVLMAGGVIITLVLIFFVIGESLPVPIPPASVALMGACLALLLASQSKIDTVHNILRDVDWSTLIFFMSIFVIIGSLEKTGVTASLAQLLAVVVGQNIAFGAIVLVFTVGLLSSVVPNIPLVVAMVPLLKQYVVNIGFAGPEILGANFDGQLPAEVLPLFYAMMFGATLGGNGTLVGASSNIVAAGISEQHGRPISFHRFLRYGLPVMAVQLVVAALFVAWLMFTQQG”, the protein production entry is listed as “failed”.

As for “MKTTQRTAGWYHVMAAVTVMIWGTTFVATKVLIKYGLSPVDILFYRFLLAYICIWFFSPRVLLAKSWQDELRFVGLGLCGGSLYFVAENTALGMTLASNVSLIICTTPILTALLAPFFYKGDKLKARLIGGSLMALIGVGLVVFNGSFILQLSPAGDILTLIAALMWAFYCLLLRRMNTHYPTLFITRKVFFYGLVTLLPLFLVYPLQTDIHILFRPVVALNLLFLGVIASMLCYIMWNTAVKQLGVVCATSYIYVVPLITLLTSAIVIDETITIVALLGSALILSGVYIAERGVNLKK”, the protein production result is recorded as “failed”.

Consider “MPLIPAVPGLADRRMYVFLLLLTLGSGMSFQGWNTLYTNFAVHGAGLSGAENGLVQSIREVPGLLTFGVIPLLLLLREHRLAALAVLVTGVGVMTAGLLPTLWGVVATTLVMSFGFHYFEAVNQSLILQYFDVRTAPLVMGRLRGLAAGGNLVMGALVYVLADLFAFSTLFCIMGAFATVAGAWALTRDPSDPARPAQRRSMVLRRRYWLFYLLTILAGARRQIFTVFSVFLLVEHFGYGVREVALLFIVNNAVNWFLNPLIGRAVNRFGEQHLLTVEYSVLVLVFLGYTVTDSPLVAAFLYVVDHIFFNFAIAIRTFFQKIADPADIAPSMAMSVAINHIAAVVMPVCGGMLWMLDYRIPFYVGAGLAVASLLATQRIGAELRLQGVKPC”, for which the protein production result is given as “failed”.

Take “MNMLALTILLPLIGFVLLAFSRGRWSENLSATVGMGSVGLAALVTAYVGVDFFANGKQAVSVPLWTWMSVGDFNIGFNLVLDGLSLTMLSVVTGVGFLIHMFASWYMRGEEGYSRFFAYTNLFIASMVVLVLADNLLLMYLGWEGVGLCSYLLIGFYYTDPKNGAAAMKAFVVTRVGDVFLAFALFILYNELGTLNFREMVELAPQHFANGSTTLQWATLMLLGGAVGKSAQLPLQTWLADAMAGPTPVSALIHAATMVTAGVYLIARTHGLFLMTPEVLHLVGIVGAVTLVLAGFAALVQTDIKRVLAYSTMSQIGYMFLALGVQAWDAAIFHLMTHAFFKALLFLSSGSVILACHHEQNIFKMGGLRKSIPLVYVCFLVGGAALSALPLITAGFFSKDEILAGAMANGHINLMVAGLVGAFMTSLYTFRMIFIVFHGKEQIHAHAGKGITHHLPLIVLLVLSTFVGALIVPPLEGVLPQTTELAHGSVMTLEIASGIIAIAGILIAAWLWLGKRTLVTSIANSAPGRFFGTWWFHAWGFDWLYDKVFVKPFLGIAWLLKRDPLNSLMNIPAILSRFAGKGLLVSENGYLRWYVASMSIGAVVVLALLMVLR”: the protein production entry is given as “failed”.

For “MRYCRRIGDGHITANSRRMFMVEPAGRKPDPQRRTPHPSVAPADAPWPAHSPVDPAVRRFRGAARYAIWRRGAEWTAVADGPQWSAALAPRIWALRQRQWPVLAVSAPMLVVAGAVALAGVQGWSPVAWTALLVAEVLLRVWVARQAGPWRTAALQRTGWQLVTRLRAISVADAVTTAQIRAGRPQR”, the protein production entry is “failed”.

For “MKEFLNSLSYGISSHEVNNEFKQIFRELLTNHIIKEHKNKYYLNNGFAFGVLDISSKGTGFLQCFDESFKKDLLIENKNLKGANYKDIVAVKLLPLKKKRPSAKVILVLKRANETSLMITKRYGEAVLGMNIKTGLSTALKASQKSLKALPLGTILKIENENNNIIEVLGHIDDESVDEKISLALFNKNNEFSDACIKEALANGDSVDASMYENRMDLRALPFCTIDPIHAKDFDDAIYFDTQKREIYVAIADVSEYVYAYSAIDKEARNRGFSIYFPHIAIPMLPRPLSENICSLKPHLDRLAYCFKITLNHENKVIKEELFEGIINSKRRFNYDEVDEILIQKPDLKELSWLYELFEITKNLRKMRLKNAFEFRTEELRMNLDENLSLKSTVFEKDTPSHNLIEDCMLLANKAAAKLIDIGVFRNHLSADVRKIDKLLNELRELGIDVNFKPNLPELIRDIQALADELNLRAEVDKLIIKAQKKAEYSSVNAGHFGLGFDKYSHFTSPIRRYSDLILHRLLKAKQKNDEKLFNYLLLNIESTCENLSTLEREADKVAFDFMDRKFARWAAKNIGKKFKALVVQNDGVCIAKLDDEIKGADIILYDTRVNLLENVEVQIMEADIVMAKIYAKITQRLIKEENV”, the protein production entry is “failed”.

With “MTSSPTSTQESSTSWYLLLQQLIDGESLSRSQAAELMQGWLSEAVPPELSGAILTALNFKGVSADELTGMAEVLQSQSKMGTGENYSQLPITNSPFSIIDTCGTGGDGSSTFNISTAVAFVAAAYGVPVAKHGNRSASSLTGSADVLEALGVNLGASPEKVQAALQEVGITFLFAPGWHPALKAVATLRRTLRIRTVFNLLGPLVNPLRPTGQVVGLFTPKLLTTVAQALDNLGKQKAIVLHGRERLDEAGLGDLTDLAVLSDGELQLTTINPQEVGVTPAPIGALRGGDVQENAEILKAVLQGKGTQAQQDAVALNAALALQVAGAVPLLDHAQGVSVAKEILQTGTAWAKLAQLVYFLGN”, the protein production result is on record as “not failed”.

As to “MTKIAILGANGRLGRVVAKAFIDAGFDVRTVTRTGKVPAELDGATAVAGDALDRQSLISATEGVDIIFNGLNPIYTDWGKCLPMAENVMAACHANNALHLFPGTVYNYGSPMPAVITEDTPFHPTTEKGRIRCAMEELFRREADAGRVRTILLRAGDFFGGTGSGSWFDLVVAAKMSKGVYTAPGPVDLVHEWAYLPDFAVGFVALARNLDRLGSYEALNFPGHAVTDLEIKAAAEKALGRPLKMTSMPWWVLRAGSPFVAMWREIVSMSYLRFEPHQLASTRLEGIIGEIPHTPLDQAVAQALEDIGIATVKGMKAA”, the protein production entry is on record as “failed”.

In the case of “SLGEMKRAAIIIDDFGGDVKGVDDFLTGEIPVTVAVMPFLEHSTKQAEIAQAAGLEVIVHMPLEPKKGKISWLGPSGITSNLSVGEVKSRVRKAFDDIPYAVGLNNHMGSKIVENEKIMRAILEVVKEKNAFIIDSGTSPHSLIPQLAEELEVPYATRSIFLDNTHSSRKEVIKNMRKLAKKAKQGSEPIGIGHVGVRGDETYAGIRSMLDEFQAESIQLVPVSQLLPSPIEEDHNKFWQQPFQAKE”, the protein production entry is “not failed”.

For “MTNMRQVLKTDRLVLEPQSMARFDQWFAMERQRDEAGHRDLTEDQAWLRLCARQGMWDAYACGFYYLLDPVSGEMRGEAGFQFRRRGFGPGFDNHPEAAWAVASAHQGRGLAAEAMQALLAHHDRSSGRQRVVALIARSNLPSLRLAERLGFRGYSDVAFDGAAHLLLERAG”, the protein production entry is given as “not failed”.

In the case of “MARGELPRASISDTIPMTMASIDAGSVRFTARADKRHLNPLGGVHGGFAATVLDSVTGCAIHSILEAGVGYGTVDLSVKRVKAVPEDTPLVAEGRVLHVPCAIGSQRADLMLAPPRLGRDRRCPAGHAPAGAARAACAPQGRLTPMRRPLNAAPAARRCGRTGTDRSRAPGRACAAPWSSAC”, the protein production result is on record as “failed”.

With “IDIEAMLGSVFDAMEPELDFTGEARNMDEARGQVRSFRSLEVPRVLHASPRVLVQSLADGKSVRHVDRAHFTDDERVEIGKDLLRFMYHGYFVHRFFHADPHAGNVFAAPGGPATLIDWGMVGRLD”, the protein production entry is “failed”.

With “LECDGKVNICCKKQFFVSFKDIGWNDWIIAPSGYHANYCEGECPSHIAGTSGSSLSFHSTVINHYRMRGHSPFANLKSCCVPTKLRPMSMLYYDDGQNIIKKDIQNMIVEECGCS”, the protein production entry was “not failed”.

Values taken from a protein production outcome set (Wang et al. 2014).
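Also: failed if final PepcDB status was selected cloned or expressed and not failed if soluble or beyond.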
